Assay results reported in publication PMC10452355, “Phosphoserine Aminotransferase Pathogenetic Variants in Serine Deficiency Disorders: A Functional Characterization” (Biomolecules, 2023).

Biological target: the molecule itself
Assay: SEC; Superdex 200 Increase 5/150 GL, 50 mM HEPES pH 7, 300 mM KCl, room temperature, 0.3 mL/min; loaded at 23 µM, eluting at around 7.5 µM; apparent mass against a calibration curve; self-association (dimer)

B1: phosphoserine aminotransferase (PSAT), wild type, human, PSAT beta (enzyme)
chain: MDAPRQVVNFGPGPAKLPHSVLLEIQKELLDYKGVGISVLEMSHRSSDFAKIINNTENLVRELLAVPDNYKVIFLQGGGCGQFSAVPLNLIGLKAGRCADYVVTGAWSAKAAEEAKKFGTINIVHPKLGSYTKIPDPSTWNLNPDASYVYYCANETVHGVEFDFIPDVKGAVLVCDMSSNFLSKPVDVSKFGVIFAGAQKNVGSAGVTVVIVRDDLLGFALRECPSVLEYKVQAGNSSLYNTPPCFSIYVMGLVLEWIKNNGGAAAMEKLSSIKSQTIYEIIDNSQGFYVCPVEPQNRSKMNIPFRIGNAKGDDALEKRFLDKALELNMLSLKGHRSVGGIRASLYNAVTIEDVQKLAAFMKKFLEMHQL
notes: human phosphoserine aminotransferase, splice form PSAT beta (the long form; PSAT alpha lacks 46 amino acids between V290 and S337); PLP-dependent homodimer; also called wt PSAT; WT; source: E. coli BL21(DE3) tuner, purified (IMAC, Talon superflow); not shown: His tag (from the IMAC purification on Talon)
stoichiometry N: 2
